Laboratory results: paper PMC3167946 (Vaccine, 2011)

Biological target: Envelope glycoprotein gp120Bal (HIV-1 isolate BaL (subtype B), clone …, UniProt Q6TAP7, strain)
Experiment: ELISA

B1: human mature b12 scFv (scFv, V domains shown)
VH: QVQLVQSGAEVKKPGASVKVSCQASGYRFSNFVIHWVRQAPGQRFEWMGWINPYNGNKEFSAKFQDRVTFTADTSANTAYMELRSLRSADTAVYYCARVGPYSWDDSPQDNYYMDVWGKGTTVIVSS
VL: EIVLTQSPGTLSLSPGERATFSCRSSHSIRSRRVAWYQHKPGQAPRLVIHGVSNRASGISDRFSGSGSGTDFTLTITRVEPEDFALYYCQVYGASSYTFGQGTKLERK
EC50: 0.3 nM
